# Laboratory results as given in patent US6673571B2, “Polypeptides having aminopeptidase activity and nucleic acids encoding same” (Novozymes Biotech, Inc., priority 1997, dated 2004).
# B1: Sphingomonas capsulata aminopeptidase I: purified aminopeptidase of 67 kDa from Sphingomonas capsulata IFO 12533; deduced amino acid sequence SEQ ID NO:2 (protein)
# chain: MRKTPQGIGLLSALSTSTLALATLILAQPALAQVQPASNSRPMAVPIAHGVPDAQDVPYPGTIGLQIDATDLATGAFRVVETVPVAADAKELILQLPAWLPGEHGNRGPVAELAGITFEAKGQKLAWTRDPVEVNAFHIPLPAGTSEVVARFIHTSPLRDSEGRITVTREMLNVQWEKMSLYPAGHYVRQIKVRPTVSFPQGWTVFTALDGKTQSGAGNTVTWAETDYETLVDSPIFAGLYAARHDLGHNVYFDLVADKPELLAIKPENLAAYRNLADEAVGAFGARHFDHYDFLLALTDRMGSIGLEHHRSSENQQEPKSLTDWAAYDWDRNVIAHEFSHSWDGKYRRSAKLWTPDYRQPMQDNLLWVYEGQTQFWGLVLAARSGVQSKDVVLGSLANYAGTFTQTAGRDWRSVEDTTMDPIFAARKPKPYSSLTRNEDYYTEGALVWLEADQIIRDGTGGKKGLDDFAKAFFGVRDGDWGVLTYEFDDVVKTLNGVYPYDWATFLKTRLQTPGQPVPLGGIERGGYKLEFKDEPNPYDKARMADAKVLSLFNSLGVTLDKDGKVTASRWDGPAFKAGLVSGMQVMAVNGDAYDADKLKGAITNAKTGNPGAGRPIELLVKRDDRFVTLPITYADGLRWPWLVRTAPGTAPTGLDKLLAPHASKLPVGKAAK
# How the values were obtained:
# [1] = Substrate specificity: initial rates of hydrolysis of para-nitroanilides; assay type: biochemical; conditions: Gly-Phe-pNA versus Ala-Ala-pNA
# [2] = Temperature stability (residual activity after 20 minutes incubation); assay type: physicochemical; conditions: pH 7.5
# Procedure: The temperature stability of aminopeptidase I was determined by incubating the enzyme for 20 minutes in 50 mM sodium phosphate pH 7.5 buffer at temperatures in the range of 35° C. to 55° C. followed by cooling on ice and measuring the residual activity using Ala-pNA as substrate at pH 7.5 as described above.
# [3] = Specific activity in alanyl-aminopeptidase units (AAU); assay type: biochemical; conditions: Ala-pNa, pH 7.5, 22° C.
# Procedure: The aminopeptidase I dosages used were based on alanyl-aminopeptidase units (AAU) determined by the hydrolysis of Ala-pNa at pH 7.5. One AAU unit of the aminopeptidase I is defined as the quantity of an enzyme which hydrolyses 1.0 micromole of Ala-pNa per minute in a 9.1 mM solution of Ala-pNa at pH 7.5, 22° C., and ionic strength=0.05.
# The specific activity of the purified aminopeptidase I was approximately 12 AAU/mg enzyme. Therefore, a dosage of 0.24 AAU per 200 mg soy protein, for example, corresponded to 0.1 g enzyme per kg soy protein.
# [4] = Isoelectric point by activity staining method; assay type: physicochemical; conditions: freshly prepared enzyme
# Text: The isoelectric point of the aminopeptidase is variable since the isoelectric point of the freshly prepared enzyme is estimated as 8.4 using an activity staining method, however, the isoelectric point varies from 7.4 to 8.5 during the course of purification and/or storage. The uncertainty of the isoelectric point may be due to the self digestion of the aminopeptidase from its amino terminal.
# [5] = test system: soy protein; assay: Release of free amino acids (FAA) in soy protein hydrolysis; assay type: biochemical, soy bean
# Procedure: Hydrolysis was carried out on a 10 ml scale at 50° C. for 18 hours. The initial pH was 7 with no pH readjustment during hydrolysis. Inactivation of the enzyme was carried out at 85° C. for 3 minutes in a water bath. The substrate concentration was 2% protein from soy bean meal. The substrate was heat treated in a water bath at 85° C. for 3 minutes. The enzymes used with FLAVOURZYME 1000L™ and ALCALASE 2.4L® described above were crude Sphingomonas capsulata aminopeptidase I powder (see Example 1) and the purified Sphingomonas capsulata aminopeptidase I described in Example 4.
# Hyp, methioninsulphonic acid, and Trp were not included in the Table due to very fluctuating and uncertain results.
# [6] = Specific activity in glycine aminopeptidase units (GAPU); assay type: biochemical; conditions: Gly-pNA, 50 mM Tris-HCl pH 7.5, 37° C.
# Procedure: The enzymes used with FLAVOURZYME™ and ALCALASE® were crude Sphingomonas capsulata aminopeptidase I powder and purified Sphingomonas capsulata aminopeptidase I as in Example 7. Glycine aminopeptidase unit (GAPU) of both crude and purified enzyme was measured in 50 mM Tris-HCl pH 7.5 buffer at 37° C. using Gly-pNA as a substrate. Aminopeptidase I was assayed at 37° C. in 50 mM Tris-HCl (pH 7.5). Gly-pNA (Bachem Feinchemikalien AG, Bubendorf, Switzerland) was dissolved in 40% dioxane at a concentration of 2.5 mg/ml and 1.5 volume of 50 mM Tris-HCl (pH 7.5) was added to a substrate concentration of 1 mg/ml. The enzyme sample was diluted in 500 μl of the same buffer and 100 μl of the substrate solution was added and incubated at 37° C. for 5 minutes. The reaction was terminated by the addition of 300 μl of 1 M sodium acetate pH 4.0 buffer. For the blank reaction, the stop solution was added to the enzyme solution and incubated for 5 minutes at 37° C., and then the substrate solution was added. The absorbance at 410 nm was measured for both the sample and blank reactions. The enzyme activity was calculated using the molecular extinction coefficient at 410 nm for pNA as 9480 M^−1 cm^−1. One unit of GAPU was defined as the quantity of enzyme that hydrolyses 1 micromole of Gly-pNA at 37° C. per minute under the conditions described above. […]
# [7] = 1.5% FLAVOURZYME +67 kDa AP versus 6.0% FLAVOURZYME
molecule,measurement,setting,value
B1,hydrolysis of dipeptide substrates,[1],hydrolysed Gly-Phe-pNA more quickly than Ala-Ala-pNA
same,residual activity,[2]; 45° C.,approximately 60%
same,residual activity,[2]; 50° C.,completely inactivated
same,temperature stability,[2]; up to 40° C.,approximately 100%
same,specific activity,[3],approximately 12 AAU/mg enzyme
same,isoelectric point,[4],~8.4
same,% Relative increase in FAA: Ala,[5]; 1.5% FLAVOURZYME +67 kDa AP,130.3%
same,% Relative increase in FAA: Arg,[5]; 1.5% FLAVOURZYME +67 kDa AP,37.4%
same,% Relative increase in FAA: Asn,[5]; 1.5% FLAVOURZYME +67 kDa AP,32.3%
same,% Relative increase in FAA: Asp,[5]; 1.5% FLAVOURZYME +67 kDa AP,164.5%
same,% Relative increase in FAA: Cys,[5]; 1.5% FLAVOURZYME +67 kDa AP,12.6%
same,% Relative increase in FAA: Gln,[5]; 1.5% FLAVOURZYME +67 kDa AP,138.9%
same,% Relative increase in FAA: Glu,[5]; 1.5% FLAVOURZYME +67 kDa AP,145.9%
same,% Relative increase in FAA: Gly,[5]; 1.5% FLAVOURZYME +67 kDa AP,305.7%
same,% Relative increase in FAA: His,[5]; 1.5% FLAVOURZYME +67 kDa AP,30.3%
same,% Relative increase in FAA: Ile,[5]; 1.5% FLAVOURZYME +67 kDa AP,48.7%
same,% Relative increase in FAA: Leu,[5]; 1.5% FLAVOURZYME +67 kDa AP,35.2%
same,% Relative increase in FAA: Lys,[5]; 1.5% FLAVOURZYME +67 kDa AP,62.4%
same,% Relative increase in FAA: Met,[5]; 1.5% FLAVOURZYME +67 kDa AP,−20.0%
same,% Relative increase in FAA: Phe,[5]; 1.5% FLAVOURZYME +67 kDa AP,41.8%
same,% Relative increase in FAA: Pro,[5]; 1.5% FLAVOURZYME +67 kDa AP,32.4%
same,% Relative increase in FAA: Ser,[5]; 1.5% FLAVOURZYME +67 kDa AP,69.3%
same,% Relative increase in FAA: Thr,[5]; 1.5% FLAVOURZYME +67 kDa AP,34.7%
same,% Relative increase in FAA: Tyr,[5]; 1.5% FLAVOURZYME +67 kDa AP,47.6%
same,% Relative increase in FAA: Val,[5]; 1.5% FLAVOURZYME +67 kDa AP,44.0%
same,% Relative increase in FAA: total,[5]; 1.5% FLAVOURZYME +67 kDa AP,64.5%
same,% Relative increase in FAA: Ala,[5]; [7],27.3%
same,% Relative increase in FAA: Arg,[5]; [7],−2.9%
same,% Relative increase in FAA: Asn,[5]; [7],−15.2%
same,% Relative increase in FAA: Asp,[5]; [7],24.2%
same,% Relative increase in FAA: Cys,[5]; [7],6.3%
same,% Relative increase in FAA: Gln,[5]; [7],9.9%
same,% Relative increase in FAA: Glu,[5]; [7],28.7%
same,% Relative increase in FAA: Gly,[5]; [7],90.6%
same,% Relative increase in FAA: His,[5]; [7],−6.8%
same,% Relative increase in FAA: Ile,[5]; [7],−21.0%
same,% Relative increase in FAA: Leu,[5]; [7],−9.1%
same,% Relative increase in FAA: Lys,[5]; [7],−1.4%
same,% Relative increase in FAA: Met,[5]; [7],−46.7%
same,% Relative increase in FAA: Phe,[5]; [7],−4.5%
same,% Relative increase in FAA: Pro,[5]; [7],−39.7%
same,% Relative increase in FAA: Ser,[5]; [7],12.5%
same,% Relative increase in FAA: Thr,[5]; [7],−18.3%
same,% Relative increase in FAA: Tyr,[5]; [7],−6.9%
same,% Relative increase in FAA: Val,[5]; [7],−17.7%
same,% Relative increase in FAA: total,[5]; [7],0.0%
same,% Relative increase in FAA: Ala,[5]; 6.0% FLAVOURZYME +67 kDa AP,36.5%
same,% Relative increase in FAA: Arg,[5]; 6.0% FLAVOURZYME +67 kDa AP,−31.4%
same,% Relative increase in FAA: Asn,[5]; 6.0% FLAVOURZYME +67 kDa AP,7.6%
same,% Relative increase in FAA: Asp,[5]; 6.0% FLAVOURZYME +67 kDa AP,24.8%
same,% Relative increase in FAA: Cys,[5]; 6.0% FLAVOURZYME +67 kDa AP,9.5%
same,% Relative increase in FAA: Gln,[5]; 6.0% FLAVOURZYME +67 kDa AP,28.1%
same,% Relative increase in FAA: Glu,[5]; 6.0% FLAVOURZYME +67 kDa AP,31.3%
same,% Relative increase in FAA: Gly,[5]; 6.0% FLAVOURZYME +67 kDa AP,92.9%
same,% Relative increase in FAA: His,[5]; 6.0% FLAVOURZYME +67 kDa AP,7.5%
same,% Relative increase in FAA: Ile,[5]; 6.0% FLAVOURZYME +67 kDa AP,7.2%
same,% Relative increase in FAA: Leu,[5]; 6.0% FLAVOURZYME +67 kDa AP,5.2%
same,% Relative increase in FAA: Lys,[5]; 6.0% FLAVOURZYME +67 kDa AP,13.8%
same,% Relative increase in FAA: Met,[5]; 6.0% FLAVOURZYME +67 kDa AP,21.1%
same,% Relative increase in FAA: Phe,[5]; 6.0% FLAVOURZYME +67 kDa AP,7.2%
same,% Relative increase in FAA: Pro,[5]; 6.0% FLAVOURZYME +67 kDa AP,−11.5%
same,% Relative increase in FAA: Ser,[5]; 6.0% FLAVOURZYME +67 kDa AP,41.7%
same,% Relative increase in FAA: Thr,[5]; 6.0% FLAVOURZYME +67 kDa AP,2.4%
same,% Relative increase in FAA: Tyr,[5]; 6.0% FLAVOURZYME +67 kDa AP,8.5%
same,% Relative increase in FAA: Val,[5]; 6.0% FLAVOURZYME +67 kDa AP,6.3%
same,% Relative increase in FAA: total,[5]; 6.0% FLAVOURZYME +67 kDa AP,10.3%
same,specific activity,[6],6.45 GAPU/mg
